The text below walks through data of patent US20260209293A1 (Novo Nordisk, published 2026).

Assay [1] has as its target T1, human amylin-3(a) receptor (human, UniProt P30988 25-474; O60896 24-148).
T1 sequence (looked up) 1: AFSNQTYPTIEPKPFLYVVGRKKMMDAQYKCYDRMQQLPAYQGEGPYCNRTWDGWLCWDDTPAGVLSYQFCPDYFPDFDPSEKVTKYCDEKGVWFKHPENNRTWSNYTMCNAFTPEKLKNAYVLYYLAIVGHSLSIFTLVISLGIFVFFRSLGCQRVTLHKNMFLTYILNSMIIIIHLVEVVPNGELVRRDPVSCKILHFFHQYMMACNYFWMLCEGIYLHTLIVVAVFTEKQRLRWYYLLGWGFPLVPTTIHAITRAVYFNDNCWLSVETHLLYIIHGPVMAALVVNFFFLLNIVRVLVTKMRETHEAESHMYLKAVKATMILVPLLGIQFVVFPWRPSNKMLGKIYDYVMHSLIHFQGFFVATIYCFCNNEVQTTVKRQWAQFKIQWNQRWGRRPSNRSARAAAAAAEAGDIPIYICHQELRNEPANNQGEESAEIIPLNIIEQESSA
T1 sequence (looked up) 2: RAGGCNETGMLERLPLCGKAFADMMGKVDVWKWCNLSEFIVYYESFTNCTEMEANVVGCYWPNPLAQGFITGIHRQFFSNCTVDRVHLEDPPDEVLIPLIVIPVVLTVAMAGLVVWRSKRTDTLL
Description: cell-based or functional assay.

The target of assay [2] is T2, human calcitonin receptor (a) (human, UniProt P30988 25-474).
T2 sequence (looked up): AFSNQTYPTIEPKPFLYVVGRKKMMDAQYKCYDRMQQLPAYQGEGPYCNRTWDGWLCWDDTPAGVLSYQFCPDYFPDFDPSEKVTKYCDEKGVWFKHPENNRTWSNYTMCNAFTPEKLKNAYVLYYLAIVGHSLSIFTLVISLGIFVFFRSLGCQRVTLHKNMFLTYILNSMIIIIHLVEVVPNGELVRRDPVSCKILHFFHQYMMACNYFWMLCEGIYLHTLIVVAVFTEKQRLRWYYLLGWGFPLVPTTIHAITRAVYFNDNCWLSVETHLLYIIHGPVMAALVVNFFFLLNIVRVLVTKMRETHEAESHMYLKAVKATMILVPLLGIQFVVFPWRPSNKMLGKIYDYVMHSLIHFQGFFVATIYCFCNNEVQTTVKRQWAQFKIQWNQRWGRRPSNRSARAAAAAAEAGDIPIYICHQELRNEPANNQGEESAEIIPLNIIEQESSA
The assay is described as follows: cell-based or functional assay.

*1 amine or outer side, *2 acyl side, *3 side chain or, on linkers, in order; H or OH if unused. The star is where a group is joined. C20 diacid = O=C(O)CCCCCCCCCCCCCCCCCCC(=O)*; C18 diacid = O=C(O)CCCCCCCCCCCCCCCCC(=O)*; γGlu = O=C(O)[C@H](CCC(=O)[*:2])N[*:1]

B1: N^1-[(4S)-4-carboxy-4-(19-carboxynonadecanoylamino)butanoyl]-[Ala1,Ser2,His3,Leu4,Ser5,Ala7,Gln8,Ala10,Glu14,His17,Asp21,Pro25,Pro28,Pro29,Asp31,Pro37]-human … (peptide)
peptide: {C20 diacid-γGlu}-ASHLSTAQTARLAEFLHHSSDNFGPILPPTDVGSNTP-NH2
SMILES: CC[C@H](C)[C@H](NC(=O)[C@@H]1CCCN1C(=O)CNC(=O)[C@H](Cc1ccccc1)NC(=O)[C@H](CC(N)=O)NC(=O)[C@H](CC(=O)O)NC(=O)[C@H](CO)NC(=O)[C@H](CO)NC(=O)[C@H](Cc1c[nH]cn1)NC(=O)[C@H](Cc1c[nH]cn1)NC(=O)[C@H](CC(C)C)NC(=O)[C@H](Cc1ccccc1)NC(=O)[C@H](CCC(=O)O)NC(=O)[C@H](C)NC(=O)[C@H](CC(C)C)NC(=O)[C@H](CCCNC(=N)N)NC(=O)[C@H](C)NC(=O)[C@@H](NC(=O)[C@H](CCC(N)=O)NC(=O)[C@H](C)NC(=O)[C@@H](NC(=O)[C@H](CO)NC(=O)[C@H](CC(C)C)NC(=O)[C@H](Cc1c[nH]cn1)NC(=O)[C@H](CO)NC(=O)[C@H](C)NC(=O)CC[C@H](NC(=O)CCCCCCCCCCCCCCCCCCC(=O)O)C(=O)O)[C@@H](C)O)[C@@H](C)O)C(=O)N[C@@H](CC(C)C)C(=O)N1CCC[C@H]1C(=O)N1CCC[C@H]1C(=O)N[C@H](C(=O)N[C@@H](CC(=O)O)C(=O)N[C@H](C(=O)NCC(=O)N[C@@H](CO)C(=O)N[C@@H](CC(N)=O)C(=O)N[C@H](C(=O)N1CCC[C@H]1C(N)=O)[C@@H](C)O)C(C)C)[C@@H](C)O
As for B1, the “hAmyR3 potency, EC50 (pM); CRE-luciferase reporter in BHK cells” value (“hAmyR3 potency, EC50 (pM)” below) in assay [1] came to 0.77 pM. Further, the “hCalcR potency, EC50 (pM); CRE-luciferase reporter in BHK cells” value (“hCalcR potency, EC50 (pM)” for short) in assay [2] was 1.31 pM.

B2: N^1-[(4S)-4-carboxy-4-[[(4S)-4-carboxy-4-(17-carboxyheptadecanoylamino)butanoyl]amino]butanoyl]-[Ala1,Ser2,His3,Leu4,Ser5,Ala7,Gln8,Glu14,His17,Asp21, … (peptide)
peptide: {C18 diacid-γGlu-γGlu}-ASHLSTAQTQRLAEFLHHSSDPFGAIPSSTDVGPDTP-NH2
SMILES: CC[C@H](C)[C@H](NC(=O)[C@H](C)NC(=O)CNC(=O)[C@H](Cc1ccccc1)NC(=O)[C@@H]1CCCN1C(=O)[C@H](CC(=O)O)NC(=O)[C@H](CO)NC(=O)[C@H](CO)NC(=O)[C@H](Cc1c[nH]cn1)NC(=O)[C@H](Cc1c[nH]cn1)NC(=O)[C@H](CC(C)C)NC(=O)[C@H](Cc1ccccc1)NC(=O)[C@H](CCC(=O)O)NC(=O)[C@H](C)NC(=O)[C@H](CC(C)C)NC(=O)[C@H](CCCNC(=N)N)NC(=O)[C@H](CCC(N)=O)NC(=O)[C@@H](NC(=O)[C@H](CCC(N)=O)NC(=O)[C@H](C)NC(=O)[C@@H](NC(=O)[C@H](CO)NC(=O)[C@H](CC(C)C)NC(=O)[C@H](Cc1c[nH]cn1)NC(=O)[C@H](CO)NC(=O)[C@H](C)NC(=O)CC[C@H](NC(=O)CC[C@H](NC(=O)CCCCCCCCCCCCCCCCC(=O)O)C(=O)O)C(=O)O)[C@@H](C)O)[C@@H](C)O)C(=O)N1CCC[C@H]1C(=O)N[C@@H](CO)C(=O)N[C@@H](CO)C(=O)N[C@H](C(=O)N[C@@H](CC(=O)O)C(=O)N[C@H](C(=O)NCC(=O)N1CCC[C@H]1C(=O)N[C@@H](CC(=O)O)C(=O)N[C@H](C(=O)N1CCC[C@H]1C(N)=O)[C@@H](C)O)C(C)C)[C@@H](C)O
B2: in assay [1], the “hAmyR3 potency, EC50 (pM)” value was determined as 2.18 pM. Moreover, the “hCalcR potency, EC50 (pM)” value in assay [2] was 1.68 pM.

B3: N^1-[(4S)-4-carboxy-4-(17-carboxyheptadecanoylamino)butanoyl]-[Ala1,Ser2,His3,Leu4,Ser5,Ala7,Gln8,Glu14,His17,Asp21,Pro22,Pro27,Asp31,Pro34,Asp35, Pro37]-human … (peptide)
peptide: {C18 diacid-γGlu}-ASHLSTAQTQRLAEFLHHSSDPFGAIPSSTDVGPDTP-NH2
SMILES: CC[C@H](C)[C@H](NC(=O)[C@H](C)NC(=O)CNC(=O)[C@H](Cc1ccccc1)NC(=O)[C@@H]1CCCN1C(=O)[C@H](CC(=O)O)NC(=O)[C@H](CO)NC(=O)[C@H](CO)NC(=O)[C@H](Cc1c[nH]cn1)NC(=O)[C@H](Cc1c[nH]cn1)NC(=O)[C@H](CC(C)C)NC(=O)[C@H](Cc1ccccc1)NC(=O)[C@H](CCC(=O)O)NC(=O)[C@H](C)NC(=O)[C@H](CC(C)C)NC(=O)[C@H](CCCNC(=N)N)NC(=O)[C@H](CCC(N)=O)NC(=O)[C@@H](NC(=O)[C@H](CCC(N)=O)NC(=O)[C@H](C)NC(=O)[C@@H](NC(=O)[C@H](CO)NC(=O)[C@H](CC(C)C)NC(=O)[C@H](Cc1c[nH]cn1)NC(=O)[C@H](CO)NC(=O)[C@H](C)NC(=O)CC[C@H](NC(=O)CCCCCCCCCCCCCCCCC(=O)O)C(=O)O)[C@@H](C)O)[C@@H](C)O)C(=O)N1CCC[C@H]1C(=O)N[C@@H](CO)C(=O)N[C@@H](CO)C(=O)N[C@H](C(=O)N[C@@H](CC(=O)O)C(=O)N[C@H](C(=O)NCC(=O)N1CCC[C@H]1C(=O)N[C@@H](CC(=O)O)C(=O)N[C@H](C(=O)N1CCC[C@H]1C(N)=O)[C@@H](C)O)C(C)C)[C@@H](C)O
As to B3, in assay [1], the “hAmyR3 potency, EC50 (pM)” value was found to be 1.5 pM. Also, the “hCalcR potency, EC50 (pM)” value in assay [2] was 1.44 pM.
